Target: HA-tagged WT WD40 (FBW7ΔDF) (human) (UniProt Q969H0)

Merkel cell polyomavirus small T antigen, wild type (natural protein)
LT protein turnover (t1/2) in a cycloheximide chase, 293 cells co-transfected with LT and sT; FBW7 is that of the cells, not the ΔDF construct: > 10 h
